# Measurements: publication PMC2932712, “Formation of Mobile Chromatin-Associated Nuclear Foci Containing HIV-1 Vpr and VPRBP Is Critical for the Induction of G2 Cell Cycle Arrest” (PLoS Pathogens, 2010)
# Positions count from the first letter of the chain named.
# B1: eYFP-Vpr (WT) (natural protein)
# chain: MEQAPEDQGPQREPHNEWTLELLEELKNEAVRHFPRIWLHGLGQHIYETYGDTWAGVEAIIRILQQLLFIHFRIGCRHSRIGVTQQRRARNGASRS
# notes: BRET acceptor; also called wild type eYFP-Vpr; pCDNA3.1-eYFP-Vpr(WT); source: HEK293T, transfected, in live cells; not shown: eYFP, N-terminal, kept
# What was measured:
# Assay in all cases: FRET or BRET; BRET saturation in live HEK293T cells; fixed Rluc donor plasmid (10 ng), increasing eYFP acceptor plasmid (0 to 500 ng); coelenterazine H; BRET50 as relative affinity
# Conditions in all cases: partners not purified
# Rluc-Vpr (Q65R) = molecular target: T1, Rluc-Vpr (Q65R) (HIV-1, UniProt P05928 1-96, Q65R)
# T1 construct: BRET donor; also called the Q65R mutant; pCDNA3.1-Rluc-Vpr (Q65R); source: HEK293T, transfected, in live cells; not shown: renilla luciferase (Rluc), N-terminal, kept
# T1 sequence: B1 chain with Q65R
# Rluc-Vpr (R80A) = molecular target: T2, Rluc-Vpr (R80A) (HIV-1, UniProt P05928 1-96, R80A)
# T2 construct: BRET donor; also called the R80A mutant; pCDNA3.1-Rluc-Vpr (R80A); source: HEK293T, transfected, in live cells; not shown: renilla luciferase (Rluc), N-terminal, kept
# T2 sequence: B1 chain with R80A
# Rluc-Vpr (WT) = molecular target: T3, Rluc-Vpr (WT) (HIV-1, UniProt P05928 1-96)
# T3 construct: BRET donor; also called pCDNA3.1-Rluc-Vpr (WT); source: HEK293T, transfected, in live cells; not shown: renilla luciferase (Rluc), N-terminal, kept
# T3 sequence: B1 chain
binder,measurement,setting,value
B1,BRET50,Rluc-Vpr (Q65R),0.791 fluorescence/luminescence
same,BRET50,Rluc-Vpr (R80A),0.326 fluorescence/luminescence
same,BRET50,Rluc-Vpr (WT),0.397 fluorescence/luminescence
